Patent US20170355774A1 (Regeneron, published 2017)
Blank lines part the entries; values can stand above or below the binder they belong to.

Tests used:
[1] = biological target: T1, human GITR (amino acids M1-V241, NCBI Accession #NP_004186.1) expressed on cells (human, UniProt Q9Y5U5 26-241); assay: cell-based or functional assay
T1 sequence: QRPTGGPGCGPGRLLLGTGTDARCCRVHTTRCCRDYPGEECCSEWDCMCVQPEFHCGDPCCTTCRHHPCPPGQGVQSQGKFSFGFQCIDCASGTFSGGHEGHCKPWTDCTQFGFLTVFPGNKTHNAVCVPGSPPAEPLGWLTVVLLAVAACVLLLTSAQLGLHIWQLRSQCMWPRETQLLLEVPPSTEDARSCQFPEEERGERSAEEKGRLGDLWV

[2] = biological target: T1, human GITR (amino acids M1-V241, NCBI …); assay: cell-based or functional assay; remark: listed apart in the source
[3] = biological target: T1, human GITR (amino acids M1-V241, NCBI …); assay: cell-based or functional assay; remark: listed apart in the source
[4] = biological target: T1, human GITR (amino acids M1-V241, NCBI …); assay: ECL cell binding, hGITR/HEK293-D9
Procedure, shortened: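 Cells blocked with 2% BSA, then antibody dilutions from 1.7 pM to 100 nM added 1 h at RT. Bound antibody detected with SULFO-TAG anti-human kappa antibody, electrochemiluminescence read, RLU fitted by four-parameter logistic; signal at 100 nM on hGITR cells versus parental cells also recorded.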

hGITR.mmh = biological target: T2, hGITR.mmh (human); assay: SPR 37C, mAb capture
T2 construct: soluble monomeric construct; also called human (h) GITR.mmh; monomeric human GITR
T2 chain: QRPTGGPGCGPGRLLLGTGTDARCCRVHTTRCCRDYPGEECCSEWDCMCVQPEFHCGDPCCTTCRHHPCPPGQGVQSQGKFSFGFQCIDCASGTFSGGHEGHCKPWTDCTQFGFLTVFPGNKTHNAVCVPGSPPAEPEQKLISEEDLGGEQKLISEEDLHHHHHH

mfGITR.mmh = biological target: T3, mfGITR.mmh (Macaca fasicularis); assay: SPR 37C, mAb capture
T3 construct: soluble monomeric construct; also called Macaca fasicularis (mf) GITR.mmh; cynomolgus GITR protein
T3 chain: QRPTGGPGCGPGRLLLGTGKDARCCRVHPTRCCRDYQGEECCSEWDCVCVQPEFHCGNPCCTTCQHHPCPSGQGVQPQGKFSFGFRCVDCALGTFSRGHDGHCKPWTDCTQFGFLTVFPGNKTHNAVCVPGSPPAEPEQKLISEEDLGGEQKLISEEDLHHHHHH

hGITR.mFc = biological target: T4, hGITR.mFc (human); assay: SPR 37C, mAb capture
T4 construct: soluble dimeric construct with mouse Fc; also called dimeric human GITR
T4 chain: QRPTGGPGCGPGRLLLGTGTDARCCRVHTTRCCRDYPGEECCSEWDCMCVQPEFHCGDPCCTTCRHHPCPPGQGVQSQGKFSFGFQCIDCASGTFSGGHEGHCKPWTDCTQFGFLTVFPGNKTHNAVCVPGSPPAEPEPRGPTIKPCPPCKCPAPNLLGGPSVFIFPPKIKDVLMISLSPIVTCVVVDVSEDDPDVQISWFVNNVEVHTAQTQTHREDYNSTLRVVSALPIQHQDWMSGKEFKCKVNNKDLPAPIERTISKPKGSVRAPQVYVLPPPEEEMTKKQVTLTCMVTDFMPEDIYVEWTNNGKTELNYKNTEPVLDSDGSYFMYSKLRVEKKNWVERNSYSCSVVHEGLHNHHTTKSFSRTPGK

[5] = biological target: T1, human GITR (amino acids M1-V241, NCBI …); assay: cell-based or functional assay; remark: listed apart in the source

% Activation, NF-kB-Luc, non-anchored [1]: 30%
% Blocking, NF-kB-Luc, non-anchored [1]: 90%
EC50, hGITR activation, NF-kB-Luc, non-anchored [1]: 1.2 nM
IC50, blocking of hGITRL stimulation, NF-kB-Luc, non-anchored [1]: 1 nM
fold activation, T-cell proliferation, plate-bound Ab 10.6 nM, donor 1 [2]: 2 fold
fold activation, T-cell proliferation, plate-bound Ab 10.6 nM, donor 2 [2]: 6 fold
fold activation, T-cell proliferation, plate-bound Ab 10.6 nM, donor 3 [2]: 6 fold
fold activation, T-cell proliferation, plate-bound Ab 10.6 nM, donor 4 [2]: 12 fold
fold activation, T-cell proliferation, plate-bound Ab 10.6 nM, donor 5 [2]: 6 fold
fold activation, T-cell proliferation, plate-bound Ab 10.6 nM, donor 6 [2]: 19 fold
fold activation, T-cell proliferation, plate-bound Ab 10.6 nM, donor 7 [2]: 7 fold
fold activation, T-cell proliferation, plate-bound Ab 10.6 nM, donor 8 [2]: 2 fold
fold activation, T-cell proliferation, plate-bound Ab 10.6 nM, mean [2]: 8 fold
fold activation, T-cell proliferation, 22 nM, non-anchored, donor 1 [3]: 0.7 fold
fold activation, T-cell proliferation, 22 nM, non-anchored, donor 2 [3]: 0.8 fold
fold activation, T-cell proliferation, 22 nM, non-anchored, donor 3 [3]: 1 fold
fold activation, T-cell proliferation, 22 nM, non-anchored, donor 4 [3]: 1.1 fold
fold activation, T-cell proliferation, 22 nM, non-anchored, mean [3]: 0.9 fold
Average Signal (RLU) at 100 nM [4]: 5740 RLU
EC50 [4]: 0.43 nM
Kd (hGITR.mmh): 18.5 nM
koff (hGITR.mmh): 0.00645 s⁻¹
kon (hGITR.mmh): 348000 M⁻¹ s⁻¹
t½ (hGITR.mmh): 1.8 min
Kd (mfGITR.mmh): 24.9 nM
koff (mfGITR.mmh): 0.00648 s⁻¹
kon (mfGITR.mmh): 260000 M⁻¹ s⁻¹
t½ (mfGITR.mmh): 1.8 min
Kd (hGITR.mFc): 0.373 nM
koff (hGITR.mFc): 0.000269 s⁻¹
kon (hGITR.mFc): 720000 M⁻¹ s⁻¹
t½ (hGITR.mFc): 42.9 min
fold activation, T-cell proliferation, 33 nM, FcgR anchored, donor 1 [5]: 0.8 fold
fold activation, T-cell proliferation, 33 nM, FcgR anchored, donor 2 [5]: 0.9 fold
fold activation, T-cell proliferation, 33 nM, FcgR anchored, donor 3 [5]: 1 fold
fold activation, T-cell proliferation, 33 nM, FcgR anchored, donor 4 [5]: 1.7 fold
fold activation, T-cell proliferation, 33 nM, FcgR anchored, donor 5 [5]: 2.1 fold
fold activation, T-cell proliferation, 33 nM, FcgR anchored, mean [5]: 1.3 fold
B1: H4H14532P2 (antibody, human IgG4, V domains shown)
VH: QVQLVESGGGVVQPGRSLRLSCSASGFTLSNFVMHWVRQAPGKGLEWVAVILYDGSNKYYADSVKGRFTISRDNSNNRLYLQMNSLRAEDTALYYCARGESLGSPIYYYYGLDVWGQGTTVTVSS
VL: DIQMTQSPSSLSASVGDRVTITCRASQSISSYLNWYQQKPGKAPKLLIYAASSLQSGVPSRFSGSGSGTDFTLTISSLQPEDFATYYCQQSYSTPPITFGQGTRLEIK
notes: human IgG4 (H4H)

% Activation, NF-kB-Luc, non-anchored [1]: 30%
% Blocking, NF-kB-Luc, non-anchored [1]: 90%
EC50, hGITR activation, NF-kB-Luc, non-anchored [1]: 1.1 nM
IC50, blocking of hGITRL stimulation, NF-kB-Luc, non-anchored [1]: 3.4 nM
fold activation, T-cell proliferation, plate-bound Ab 10.6 nM, donor 1 [2]: 2 fold
fold activation, T-cell proliferation, plate-bound Ab 10.6 nM, donor 2 [2]: 8 fold
fold activation, T-cell proliferation, plate-bound Ab 10.6 nM, donor 3 [2]: 8 fold
fold activation, T-cell proliferation, plate-bound Ab 10.6 nM, donor 4 [2]: 4 fold
fold activation, T-cell proliferation, plate-bound Ab 10.6 nM, donor 5 [2]: 8 fold
fold activation, T-cell proliferation, plate-bound Ab 10.6 nM, donor 6 [2]: 31 fold
fold activation, T-cell proliferation, plate-bound Ab 10.6 nM, donor 7 [2]: 5 fold
fold activation, T-cell proliferation, plate-bound Ab 10.6 nM, donor 8 [2]: 4 fold
fold activation, T-cell proliferation, plate-bound Ab 10.6 nM, mean [2]: 8 fold
fold activation, T-cell proliferation, 22 nM, non-anchored, donor 1 [3]: 0.6 fold
fold activation, T-cell proliferation, 22 nM, non-anchored, donor 2 [3]: 0.8 fold
fold activation, T-cell proliferation, 22 nM, non-anchored, donor 3 [3]: 0.9 fold
fold activation, T-cell proliferation, 22 nM, non-anchored, donor 4 [3]: 1 fold
fold activation, T-cell proliferation, 22 nM, non-anchored, mean [3]: 0.8 fold
Average Signal (RLU) at 100 nM [4]: 7310 RLU
EC50 [4]: 0.45 nM
Kd (hGITR.mmh): 51.3 nM
koff (hGITR.mmh): 0.00523 s⁻¹
kon (hGITR.mmh): 102000 M⁻¹ s⁻¹
t½ (hGITR.mmh): 2.2 min
binding result (mfGITR.mmh): no binding
Kd (hGITR.mFc): 1.12 nM
koff (hGITR.mFc): 0.00177 s⁻¹
kon (hGITR.mFc): 1.58e+06 M⁻¹ s⁻¹
t½ (hGITR.mFc): 6.5 min
fold activation, T-cell proliferation, 33 nM, FcgR anchored, donor 1 [5]: 0.9 fold
fold activation, T-cell proliferation, 33 nM, FcgR anchored, donor 2 [5]: 1.5 fold
fold activation, T-cell proliferation, 33 nM, FcgR anchored, donor 3 [5]: 1.1 fold
fold activation, T-cell proliferation, 33 nM, FcgR anchored, donor 4 [5]: 1.9 fold
fold activation, T-cell proliferation, 33 nM, FcgR anchored, donor 5 [5]: 1.7 fold
fold activation, T-cell proliferation, 33 nM, FcgR anchored, mean [5]: 1.4 fold
B2: H4H14528P (antibody, human IgG4, V domains shown)
VH: QVQLVESGGGVVQPGRSLRISCAASGFTFNNYGFHWVRQAPGRGLEWVAVIWYSGSNKYYGDSVKGRFTISRDNSKNILYLQMNSLRAEDTAIYYCARFPFSSSWLLDYWGQGTLVTVSS
VL: DIQLTQSPSFLSASVGDRVTFTCWASQGISDYLAWYQQKPGKAPKLLIYAASALQSGVPSRFSGSGSGTEFTLTVSSLQPEDFATYYCQQLNSYPFTFGPGTKVDIK
notes: human IgG4 (H4H)
